The nature of this data set: label from the status in PepcDB records.
With “MTRPIFYDPTGRRSLLAKRSLAVVFLAVILAALAFATTLVAVPRQRALSLPQPHFEAASLHRGHGLSRLRSWLPRLHLQRSQEALAIGFYQPRSDASFQSLSRHGNQLDWVVPALLNVAGPEHRLAVSNDPRFDSFVAAGHHHYKVLPMVQNVGGDGWDGANVARILENATERHALERQLADYVARRGDAGLVLDFEDLPATAMRPYVAFLRETNALLPAGAQLAVTAPAGEDDWPIAALGRAADKVILMAYDEHWQNGAAGPIASQTWFTNEVEKSARALPADRLVIALGSYGYDWHQGGTDALSLSDAWLAAHDSHAPIIFDKASGNAGFAYEQDGVSHTVWMLDAATDWNEMLAVQRLGIGNLALWRLGTEDPGFWNDLAALRSGKAPDLSRLVSEGGNDVEGTGEILRITATPVAGSRTVAFGDQHLIRDERYGDLPTPFVVRRTGAANPKLLALTFDDGPDPKWTPKVLSTLEAAHVPATFFVIGENALVRPDLLRRMVADGDEIGNHTYTHPNLAGSSEAETRLEINATQRLVQAYTGRSMTLFRAPYFGDAEPTTADELQPALRAQQAGYTIVGLHVDPNDWQNPGTDEIVRQVVNQIHNATEQSSSNVILLHDGGGDRSQTVAALPRIVAVLRAEGYSFVTASQLVGIPPQAAMPRLSSSDLAAVRVDVAAFLALDGLVTLFSWLFFVAIALGIARAVIMAGLAWWQSRSPRAEPPAFEPTVSVIIPAWNEERVIAASVERVLASDYPALQVIVADDGSKDATSAVVARHFGHDPRVTLLTLANGGKAAALNRALRHATGEVVIALDADTQFEPLTIRRLARWFADPRIGAVAGDARVGNRVNLVTRWQAVEYITAQNLERRALAGFDAMTVVPGAVGAWRRAALDSVGGYPENTLAEDQDLTIAIQRKGWRVTYDPRAVAWTEAPQTFRALARQRYRWAFGTLQCLWKHRKVITSRKPAGLGLVGLPQAWLFQIAFAAISPLIDGALIASIISTVVRVVQHGWAQTQGDLGRMAIYWSLFTAIDVICGWIAYRLDDKRPPYPAHLLVAQRIVYRQIMYWVVLRALASAIGGWIVGWGKLERTGTVSPAPERA”, the protein production entry is on record as “failed”.
For “MFSIIIPIYNSENYLRYSIESVLNQSIGFKENIELILIDDGSVDSSPQICESFKNLYPNNIKIMKIENSGPSAARNCGLSNVSERSKFIGFLDSDDAFSQNALQSVYDFFCDSEHVNIAVLPVYYTGEKEGGHKLNNRFEKGTRVINILNDYKAIHFYIGGTFYRRHTLTSTVLFDESIKFWEDAIFFNQLLLKEKRYGAVAEGKYFYRKRKEQDSLVDRSWFNKKRYTYLLNECYMTLLMDSFNKYDIVLPYLQFLIVYHIKLFLYPNYRDVYKSVLDQQEQRVFVDDFIKVLKFIDPQFIKEQDMPMYYKEFMFHLLKENTEALENIKKERVLHSSCTVTSAKIKGLRLELTGHFINQYYEMKENDRIYIKYFKRLKKCKRKELKKTIEVWGYKLRDFRYAGFVVEIPIWAFAFDFVLKTPNDSLELNHVNIFKSLLTRVFKKRLEHHHHHH”, the protein production entry is reported as “not failed”.
Turning to “MKHMEKFANHFGYNRMFAKDQLTLGVHIPIENYQFHAPTMEKQVELVQKAEQYGFTGVWLRDVLLQDPDFGDPATGQIYDMMIYLTYLASKTEKIAFGTSATVLSLRHPLRVAKEIATLDQLFPERIMLGVSSGDRRADFKALGVSHETRGEKFREAFAYLEEILYKNFPSIQSTLGEVHGANLVPKPSKRVPTFITGFSQQNMEWFAEHGDGWMYYPRSPVHQAGAIGQWRELVEDYHPDVFKPFIQPMHLDLSEDPNERPTPIRLGYRTGRKALIELLDIYKSIGVNHLFLALFDGQRPADEVLDELGEEVLPHFPAL”, the protein production entry is given as “not failed”.
As to “MKIILANPRGFCAGVDRAISIVELALEIHGAPIYVRHEVVHNRFVVNGLRERGAIFVEELSEVPDGAIVIFSAHGVSQAVRQEAKDRNLKVFDATCPLVTKVHMQVARASRKGTKAILIGHKGHPEVEGTMGQYSNEDGGIFLIEKVEDIARLPMQENDNLTFMTQTTLSLDDTAETIAALKEKYPAIQGPHKNDICYATTNRQEAVRELAKLSDLVLVVGSKNSSNSNRLAELASRMGVKSQLLDEPADIQADWFNDVKTIGITAGASAPEELGQSIISRLKRFGAN”, the protein production result was “failed”.
The same measure for “MITKDVKEQLIQVSGPENFDDSNAGRLVYSYDATPQYQSMPDAVIAPRNTDEISRILTICSEHRVPIVPRGSGTNLCGGTCPTEGGLVLLFKHMNQILEIDEENLTATVQPGVITLDMIRAVESKGLFYPPDPSSMKISTIGGNINENSGGLRGLKYGVTRDYVIGLEVVLANGDIIRTGGKLAKDVAGYDLTRLFVGSEGTLGIVTEAIVKLVPKPETKKTLLALYENIDAAAQTVSDIIAAKIIPATLEFLDQPTLLVIEDYAKIGLPTSAKAVLLIEQDGPFETVERDMEKIEAICKKGDAVSVQTAQTEEEAFALTEARRSALSALARLKPTTILEDATVPRSEIANMVKAINDIAAKYDISICTFGHAGDGNLHPTCTTDIRNKDEMERVEQAFAEIFEKAIELGGTITGEHGVGEMKAPYLEMKLKKEGIDAMKALKAAFDPRNILNPGKMFAKDARKRVVAER”: “failed”; for “MNNLSWSDIKRSTFNAIKKGDLKLLANMIDKYPKVIDAYNSSGYSLLHVAAEQDNVEVLEYLYNNKIDVNITRKNDDGCVTPIHGAVDKNLIGNVEWLIAHGAKIDTGNGIHATPLIGAAFNGNLEMVKLLLKNGADINAFYDIGEGINKTRITPLIAAEMEGHTETCEYLCKNGARKLDAKKYELTQIKNQHDEILQYLQRYFGNVNKTLSEVIPASNVSVNLNIMRNTENDKFITIVTTGMSDCPMDDSDEAFEERFAELIIKLPKDWLIDKNNIKDVNNYWPLGWIRRIAHIPHLYDGWIGKDIIIPNGEPPQPFAPNTKLSCIMICQPDEKELHRFTTSKGNIINLYTLIPIYKEERNMALIKGCKYLRKRMEDRGIDEILNITRENVGLSADEQ”: “failed”.
As to “NAQARFSQNLLDQGSHPTSEKLLSVLRPASGHVADALGITEGENVIHLRTLRRVNGVALCLIDHYFADLTLWPTLQRFDSGSLHDFLREQTGIALRRSQTRISARRAQAKECQRLEIPNMSPLLCVRTLNHRDGESSPAEYSVSLTRADMIEFTMEH”, the protein production entry is given as “not failed”.
The same measure for “MDNQHNQNHIMGTLQWFIFLLANSIALPIVVGGLFHLTTEEIFYLMQRTFFVVGISSFLQGWLGHRLPIADGPAGSWVGVFTVLAYATAGQDQLHSTLQILELGMIISGIILIGLGVTGFIGRILFLFTPLVTGTFLLLLCLQLSGVFLKGMLGITATISQIDGFTAMIAFSIFLFVIILSNFGKGFVKSYAVLIGLISGWIIFLIAGKVTIPSQVTHFVQLPHIFAWGLPKWNTGMAVSSFVMVCILVSNTVAAIIAINQATIHKATIEQKQLKDGTWVGGISHIISSVFSTVGVVPLPATAGFIRLTKQKYIRSFLMACALLVVMSLFPSIIRYLASLPSAVASAVLMASFVQLIGIGFNNIKQVPMSERNVTILGVAVLFGSGVMFLPSGALQSLPSVMQYIFGNGLFVGTVVSILLEQIWRVGK”: “not failed”; for “MDELRFAAVGLNHNHIYGQVNCLLRAGARLAGFHEKDDALAAEFSAVYADARRIATAEEILEDENIGLIVSAAVSSERAELAIRAMQHGKDVLVDKPGMTSFDQLAKLRRVQAETGRIFSILYSEHFESPATVKAGELVAAGAIGEVVHIVGLGPHRLRRETRPDWFFRRADYGGILTDIASHQCEQFLFFTGVNDATVLSASVGNQSVPDAPELQDTGSIHLSTGRTTGMIHVNWLTPEGMPTWGDGRLFIVGTSGTIEVRKTVDLAGREGGNHLFLADRNGVEHIDCSRVDLPFGRQFLADIRDRTETAMPQERCFKAMELALQAQAIAEQNGDRN”: “not failed”.
For “MERVSERSLSENLRRSDREDGKIIEWEEFDHELTRLWSLSSAMKLATERKQILQPKLESLIQVSTESLRRTNELEEMRQRLEARKLLVDKTSVACKVTEQDVKKKEENLSTEVRSLLVGGTTLSIAKSKLQESNCQLEGESGYAHLKIVTNKLRKRQQFMVSQVSFIYPLKIEAGPSQDQELESFPGGSRLGTKPLSQGSVRILGLPFSMAPFTKMSFFTDKKEVQKSATALGYVAHAVSLIAPYLRVPIRYPLCLGGSKTYIRDYAPYIEPSPSDMSPITTLSQNINFVEFPLFLDGQDTTRAAYAVFLLNKNIEQLLNFVGENSLGPRQVLANLKELIRIIQSPDYIDYL”, the protein production entry is on record as “failed”.
With “MKKAVVVFSGGQDSTTCLVQALKEFDEVHAITFDYGQRHKLEIEVAQKIAKDLGVKAHKVMDVGLLNELAISSLTRDDIPVSHELQENGLPNSFVPGRNILFLTLAGIYAYQIGADTVITGVCETDFSGYPDCRDDFVKSMNTALVKGMDRALTIKTPLMWLNKAETWALADQYNALQLVRENTLTCYNGIIGDGCGDCPSCDLRKAGLDEYLNNKDAVMKSLVQKQESEGL” the entry was “failed”.

The values above are taken from a protein production outcome set (Wang et al. 2014).
